Article doi:10.1101/2023.04.27.535981, “Development of constrained peptide inhibitors targeting an oncogenic E3 ubiquitin ligase” (bioRxiv, 2023)
Square brackets hold non-standard residues; d marks the D form. Ends that are not written are not given here. pT = C[C@@H](OP(=O)(O)O)[C@H](N)C(=O)O; Ahx = NCCCCCC(=O)O

Biological target: T1, Cks1-Skp2-Skp1 complex (GST-Skp2-Skp1-His-Cks1) (human | , UniProt Q13309 1-424; P63208 1-163; P61024 1-79)
T1 construct: Skp2, human; GST-Skp2 fusion from a dicistronic pGEX 4T1 plasmid with Skp1; Skp1, human; second cistron of the pGEX 4T1 GST-Skp2/Skp1 plasmid; Cks1, full length (1-79); The design was based on PDB 2AST, whose constructs may differ; also called Skp1-Skp2-Cks1 complex; Skp2-Skp1-Cks1 complex; source: E. coli C41; GST-Skp2-Skp1 (glutathione Sepharose, SEC) and His-Cks1 (Ni-NTA, SEC) purified, mixed …
T1 sequence (Q13309 whole entry, chain 1 of 3, the tested form may be a part): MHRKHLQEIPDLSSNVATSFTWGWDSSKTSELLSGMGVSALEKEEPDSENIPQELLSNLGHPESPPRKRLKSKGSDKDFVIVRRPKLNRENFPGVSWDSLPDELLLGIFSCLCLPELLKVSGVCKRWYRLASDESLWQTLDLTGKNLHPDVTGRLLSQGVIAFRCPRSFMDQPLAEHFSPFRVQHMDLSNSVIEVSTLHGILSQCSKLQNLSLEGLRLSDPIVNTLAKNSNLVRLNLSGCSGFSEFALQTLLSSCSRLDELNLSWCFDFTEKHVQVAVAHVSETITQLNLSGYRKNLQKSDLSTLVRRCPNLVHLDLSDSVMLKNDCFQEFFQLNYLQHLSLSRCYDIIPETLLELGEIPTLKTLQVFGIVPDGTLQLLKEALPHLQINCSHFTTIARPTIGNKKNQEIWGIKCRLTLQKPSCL
T1 sequence (P63208 whole entry, chain 2 of 3, the tested form may be a part): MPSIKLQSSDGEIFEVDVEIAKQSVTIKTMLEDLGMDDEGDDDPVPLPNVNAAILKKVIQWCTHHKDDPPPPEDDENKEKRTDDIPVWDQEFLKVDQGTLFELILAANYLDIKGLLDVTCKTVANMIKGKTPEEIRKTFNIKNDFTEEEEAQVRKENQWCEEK
T1 sequence (P61024 whole entry, chain 3 of 3, the tested form may be a part): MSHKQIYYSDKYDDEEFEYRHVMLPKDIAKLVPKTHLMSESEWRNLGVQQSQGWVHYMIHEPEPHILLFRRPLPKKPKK
Assay: fluorescence polarisation; direct FP; protein serially diluted 1:2 (12 points, triplicate) and mixed with 20 nM TAMRA-labelled peptide; SEC buffer (20 mM Tris-HCl pH 7.5, 150 mM NaCl, 1 mM DTT) with 0.01 % Tween-20; 30 min at room temperature
Details: both partners purified

B1: TAMRA-labelled 10-residue phosphorylated p27 peptide (TAMRA-Ahx-AGSVEQT(phos)PKK) (peptide)
peptide: {TAMRA-Ahx}-AGSVEQ[pT]PKK
notes: p27, amino acids 181-190; also called TAMRA-labelled p27 peptide; TAMRA-labelled unconstrained p27 peptide; source: synthetic peptide
Question: B1 was tested. Which Kd did it give?
Answer: The Kd was 2780 ± 190 nM.
